Data taken from the supplement of paper PMC9233669.
Variants at the floor of the assay were thinned out.

Legend:
[1] = tested on: biotinyl-Trp-oxazolone; experiment: self-aminoacylation, catalytic enhancement (BWO) (fold over background); higher = more active; k-Seq, kA / k0A0; sequences stand for … in GGGAAUGGAUCCACAUCUACGAAUUC…UUCACUGCAGACUUGACGAAGCUG
Outline: (§1)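 Working in 50 μL HEPES/NaCl/KCl/MgCl2/CaCl2 buffer with 5% acetonitrile at pH 6.9–7.0, mutagenized RNA pools (0.43 μM; 21-nt variable region) were reacted with 2–1250 μM of each biotinyl-aminoacyl-oxazolone for 90 minutes at room temperature. Streptavidin capture followed, with quantification by triplicate qPCR and Illumina sequencing. Catalytic enhancement is reported as median kA over the uncatalyzed rate, the low-activity peak of a bimodal Gaussian fit to the data.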

[2] = tested on: biotinyl-Val-oxazolone; experiment: self-aminoacylation, catalytic enhancement (BVO) (fold over background); higher = more active; k-Seq, kA / k0A0; sequences stand for … in GGGAAUGGAUCCACAUCUACGAAUUC…UUCACUGCAGACUUGACGAAGCUG
Outline: as §1

[3] = tested on: biotinyl-Leu-oxazolone; experiment: self-aminoacylation, catalytic enhancement (BLO) (fold over background); higher = more active; k-Seq, kA / k0A0; sequences stand for … in GGGAAUGGAUCCACAUCUACGAAUUC…UUCACUGCAGACUUGACGAAGCUG
Outline: as §1

[4] = tested on: biotinyl-Met-oxazolone; experiment: self-aminoacylation, catalytic enhancement (BMO) (fold over background); higher = more active; k-Seq, kA / k0A0; sequences stand for … in GGGAAUGGAUCCACAUCUACGAAUUC…UUCACUGCAGACUUGACGAAGCUG
Outline: as §1

[5] = tested on: biotinyl-Phe-oxazolone; experiment: self-aminoacylation, catalytic enhancement (BFO) (fold over background); higher = more active; k-Seq, kA / k0A0; sequences stand for … in GGGAAUGGAUCCACAUCUACGAAUUC…UUCACUGCAGACUUGACGAAGCUG
Outline: as §1

[6] = tested on: biotinyl-Ile-oxazolone; experiment: self-aminoacylation, catalytic enhancement (BIO) (fold over background); higher = more active; k-Seq, kA / k0A0; sequences stand for … in GGGAAUGGAUCCACAUCUACGAAUUC…UUCACUGCAGACUUGACGAAGCUG
Outline: as §1

Sequence | self-aminoacylation [1] | self-aminoacylation [2] | self-aminoacylation [3] | self-aminoacylation [4] | self-aminoacylation [5] | self-aminoacylation [6]
CUACUUCAAACAAUCGCUCAG [Fam1A.1 aminoacylation ribozyme variant] | 0.671 | 0.689 | 0.52 | 0.679 | 1 | 0.884
CUACUUCAAACAAUCGGACUA [Fam1A.1 aminoacylation ribozyme variant] | 0.655 | 0.744 | 0.617 | 0.579 | 1.13 | 0.831
CUACUUCAAACAAUCGGAUUG [Fam1A.1 aminoacylation ribozyme variant] | 1.3 | 0.89 | 0.719 | 0.953 | 2.03 | 0.999
CUACUUCAAACAAUCGGCCAG [Fam1A.1 aminoacylation ribozyme variant] | 0.954 | 1.36 | 1.19 | 1.02 | 1.84 | 1.44
CUACUUCAAACAAUCGGCCUC [Fam1A.1 aminoacylation ribozyme variant] | 7.78 | 1.88 | 1.89 | 1.63 | 11.8 | 1.8
CUACUUCAAACAAUCGGCGUG [Fam1A.1 aminoacylation ribozyme variant] | 5.22 | 3.12 | 6.1 | 4.44 | 6.45 | 3.35
CUACUUCAAACAAUCGGUAAG [Fam1A.1 aminoacylation ribozyme variant] | 0.835 | 0.662 | 0.448 | 0.454 | 1.29 | 0.516
CUACUUCAAACAAUCGGUAUG [Fam1A.1 aminoacylation ribozyme variant] | 10.1 | 0.799 | 0.995 | 0.789 | 21.5 | 0.788
CUACUUCAAACAAUCGGUCCG [Fam1A.1 aminoacylation ribozyme variant] | 5.32 | 0.749 | 0.862 | 0.745 | 8.83 | 0.711
CUACUUCAAACAAUCGGUGGG [Fam1A.1 aminoacylation ribozyme variant] | 0.856 | 0.816 | 0.878 | 0.811 | 1.14 | 0.934
CUACUUCAAACAAUCGGUUGG [Fam1A.1 aminoacylation ribozyme variant] | 1.82 | 0.812 | 0.788 | 0.619 | 3.55 | 0.843
CUACUUCAAACAAUCGGUUUU [Fam1A.1 aminoacylation ribozyme variant] | 1.44 | 1.26 | 1.1 | 0.931 | 2.35 | 1.31
CUACUUCAAACAAUCGUUCGG [Fam1A.1 aminoacylation ribozyme variant] | 0.473 | 0.623 | 0.637 | 0.641 | 0.675 | 0.787
CUACUUCAAACAAUCGUUCUU [Fam1A.1 aminoacylation ribozyme variant] | 0.574 | 0.729 | 0.64 | 0.716 | 0.947 | 0.712
CUACUUCAAACAAUCGUUGUG [Fam1A.1 aminoacylation ribozyme variant] | 1.38 | 1.15 | 1.7 | 1.68 | 1.69 | 1.17
CUACUUCAAACAAUCUGGCUG [Fam1A.1 aminoacylation ribozyme variant] | 0.664 | 0.963 | 1.02 | 0.844 | 0.69 | 0.963
CUACUUCAAACAAUGCGUCUG [Fam1A.1 aminoacylation ribozyme variant] | 0.738 | 0.887 | 0.975 | 1.09 | 0.887 | 1.17
CUACUUCAAACAAUGGGCCUG [Fam1A.1 aminoacylation ribozyme variant] | 0.896 | 1.16 | 1.19 | 1.25 | 1.67 | 1.4
CUACUUCAAACAAUGUGUCUG [Fam1A.1 aminoacylation ribozyme variant] | 0.583 | 0.848 | 0.716 | 0.662 | 0.725 | 0.838
CUACUUCAAACAAUUGAUCUG [Fam1A.1 aminoacylation ribozyme variant] | 0.543 | 0.688 | 0.642 | 0.765 | 0.576 | 0.832
CUACUUCAAACAAUUGGUCGG [Fam1A.1 aminoacylation ribozyme variant] | 0.932 | 1.11 | 1.18 | 0.91 | 0.858 | 1.25
CUACUUCAAACACUCAGUCUG [Fam1A.1 aminoacylation ribozyme variant] | 0.601 | 0.732 | 0.685 | 0.727 | 1.02 | 0.798
CUACUUCAAACACUCGGCCUG [Fam1A.1 aminoacylation ribozyme variant] | 2.01 | 2.38 | 2.05 | 1.59 | 1.38 | 1.96
CUACUUCAAACACUCGGUCUC [Fam1A.1 aminoacylation ribozyme variant] | 0.9 | 0.808 | 0.953 | 0.794 | 0.739 | 0.998
CUACUUCAAACAUUCGGUCUA [Fam1A.1 aminoacylation ribozyme variant] | 0.89 | 1.02 | 0.766 | 0.882 | 0.783 | 1.03
CUACUUCAAACAUUCGGUUUG [Fam1A.1 aminoacylation ribozyme variant] | 1.43 | 1.2 | 0.962 | 1.05 | 0.613 | 1.17

Sequence | self-aminoacylation [1] | self-aminoacylation [2] | self-aminoacylation [3] | self-aminoacylation [4] | self-aminoacylation [5] | self-aminoacylation [6]
CUACUUCAAACAUUCUGUCUG [Fam1A.1 aminoacylation ribozyme variant] | 0.543 | 0.79 | 0.727 | 0.7 | 0.851 | 0.822
CUACUUCAAACCACCGGUCUG [Fam1A.1 aminoacylation ribozyme variant] | 1.25 | 0.954 | 0.795 | 1.09 | 0.963 | 1.03
CUACUUCAAACCAUCCGUCUG [Fam1A.1 aminoacylation ribozyme variant] | 0.802 | 1.14 | 0.721 | 0.891 | 0.573 | 0.891
CUACUUCAAACCAUCGAUCUG [Fam1A.1 aminoacylation ribozyme variant] | 0.581 | 0.777 | 0.529 | 0.614 | 0.733 | 0.685
CUACUUCAAACCAUCGGUCUC [Fam1A.1 aminoacylation ribozyme variant] | 0.731 | 0.72 | 0.496 | 0.555 | 0.936 | 0.708
CUACUUCAAACCAUCGUUCUG [Fam1A.1 aminoacylation ribozyme variant] | 0.478 | 0.59 | 0.553 | 0.525 | 0.66 | 0.689
CUACUUCAAACCGUCGGUCUG [Fam1A.1 aminoacylation ribozyme variant] | 0.872 | 0.917 | 0.71 | 0.847 | 0.289 | 0.831
CUACUUCAAACGAUCAGUCUG [Fam1A.1 aminoacylation ribozyme variant] | 0.734 | 0.751 | 0.549 | 0.593 | 1.22 | 0.633
CUACUUCAAACGCUCGGUCUG [Fam1A.1 aminoacylation ribozyme variant] | 0.637 | 0.828 | 1.09 | 0.592 | 0.793 | 0.741
CUACUUCAAACUACCGGUCUG [Fam1A.1 aminoacylation ribozyme variant] | 0.846 | 0.832 | 0.868 | 0.809 | 0.75 | 1.1
CUACUUCAAACUAUCGGUAUG [Fam1A.1 aminoacylation ribozyme variant] | 0.665 | 0.813 | 0.601 | 0.557 | 0.842 | 0.715
CUACUUCAAACUAUCGGUCUA [Fam1A.1 aminoacylation ribozyme variant] | 0.62 | 0.912 | 0.696 | 0.729 | 1.08 | 0.944
CUACUUCAAACUAUCGGUCUU [Fam1A.1 aminoacylation ribozyme variant] | 0.796 | 0.968 | 0.822 | 0.833 | 0.957 | 1.03
CUACUUCAAACUAUUGGUCUG [Fam1A.1 aminoacylation ribozyme variant] | 0.501 | 0.869 | 0.92 | 0.897 | 0.825 | 0.995
CUACUUCAAAGAAUCGAUCUG [Fam1A.1 aminoacylation ribozyme variant] | 0.506 | 0.595 | 0.615 | 0.454 | 0.544 | 0.679
CUACUUCAAAGAAUCGGUCUU [Fam1A.1 aminoacylation ribozyme variant] | 2.13 | 1.06 | 1.14 | 0.926 | 2.46 | 1.29
CUACUUCAAAGAAUUGGUCUG [Fam1A.1 aminoacylation ribozyme variant] | 0.806 | 0.912 | 1.08 | 0.954 | 0.605 | 1.18
CUACUUCAAAGAUUCGGUCUG [Fam1A.1 aminoacylation ribozyme variant] | 0.679 | 1.08 | 0.97 | 1.09 | 0.503 | 1.01
CUACUUCAAAGCAUCGGUCUG [Fam1A.1 aminoacylation ribozyme variant] | 0.794 | 0.939 | 0.898 | 0.802 | 0.786 | 0.857
CUACUUCAAAGGAUCGGUCUG [Fam1A.1 aminoacylation ribozyme variant] | 0.738 | 0.902 | 0.912 | 1.04 | 0.753 | 0.925
CUACUUCAACCAAUCAGUCUG [Fam1A.1 aminoacylation ribozyme variant] | 5.54 | 0.701 | 0.794 | 0.541 | 13.9 | 0.747
CUACUUCAACCAAUCGGACUG [Fam1A.1 aminoacylation ribozyme variant] | 4.9 | 0.946 | 0.851 | 0.814 | 10.7 | 0.79
CUACUUCAACGAAUCGGUCUG [Fam1A.1 aminoacylation ribozyme variant] | 3.92 | 0.833 | 1.02 | 0.753 | 4.58 | 0.847
CUACUUCAAGCAAUCGGGCUG [Fam1A.1 aminoacylation ribozyme variant] | 3.87 | 1.61 | 2.58 | 1.8 | 3.43 | 2.01
CUACUUCAAGCAAUCGGUAUG [Fam1A.1 aminoacylation ribozyme variant] | 4.52 | 0.963 | 1.02 | 1.07 | 8.16 | 0.94
